Test results: patent US20160137709A1 (AMRYT PHARMACEUTICALS, published 2016)
Changes are numbered by the printed parent chain.

T1: chimeric Hu-Leptin/Mu-EPO receptor (human; mouse, UniProt P48357 22-839; P14753 250-507)
T1 sequence (looked up): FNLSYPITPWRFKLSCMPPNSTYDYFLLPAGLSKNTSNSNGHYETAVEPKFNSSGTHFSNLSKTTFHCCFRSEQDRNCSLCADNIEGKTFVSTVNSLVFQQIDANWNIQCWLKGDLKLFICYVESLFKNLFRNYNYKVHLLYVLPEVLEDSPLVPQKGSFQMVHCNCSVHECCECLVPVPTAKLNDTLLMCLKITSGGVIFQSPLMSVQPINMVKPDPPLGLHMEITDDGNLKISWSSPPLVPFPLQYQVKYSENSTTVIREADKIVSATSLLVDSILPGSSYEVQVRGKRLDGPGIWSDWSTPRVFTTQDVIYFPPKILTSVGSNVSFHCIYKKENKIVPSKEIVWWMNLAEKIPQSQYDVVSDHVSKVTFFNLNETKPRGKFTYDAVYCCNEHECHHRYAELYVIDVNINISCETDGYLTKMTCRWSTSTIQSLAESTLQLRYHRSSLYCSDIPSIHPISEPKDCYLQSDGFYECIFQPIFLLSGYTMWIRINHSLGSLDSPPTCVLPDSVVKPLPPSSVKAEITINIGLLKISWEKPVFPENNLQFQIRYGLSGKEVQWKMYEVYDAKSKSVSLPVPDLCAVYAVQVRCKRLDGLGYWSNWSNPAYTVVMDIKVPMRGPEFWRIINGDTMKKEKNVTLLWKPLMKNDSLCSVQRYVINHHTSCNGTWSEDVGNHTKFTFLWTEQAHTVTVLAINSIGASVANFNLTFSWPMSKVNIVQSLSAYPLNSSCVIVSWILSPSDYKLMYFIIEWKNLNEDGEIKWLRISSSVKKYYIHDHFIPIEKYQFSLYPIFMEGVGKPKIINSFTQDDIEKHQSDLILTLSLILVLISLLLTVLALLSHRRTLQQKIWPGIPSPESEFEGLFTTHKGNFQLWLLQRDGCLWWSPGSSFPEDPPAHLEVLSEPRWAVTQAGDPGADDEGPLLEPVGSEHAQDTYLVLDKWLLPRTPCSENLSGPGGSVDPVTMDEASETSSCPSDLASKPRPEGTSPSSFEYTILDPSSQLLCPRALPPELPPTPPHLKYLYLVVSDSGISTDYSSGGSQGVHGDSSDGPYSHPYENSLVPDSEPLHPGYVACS

B1: Cmpd 4 (SEQ ID NO: 56) (other)
chain: MVPIQKVQDDTKTLIKTIVTRINDISHTQSVSSKQKVTGLEFIPGLHPILTLSKMDQTLAVYQQILTSMPSRNVIQISNDLENLRDLLHVLAFSKSCHLPQASGLETLESLGGVLEASGYSTEVVALSRLQGSLQDMLQQLDLSPGCTGGGGSGGGSGGGSGGGSASLAEAKVLANRELDKYGVSDFYKRLINKAKTVEGVEALKLHILAALP
B2: Cmpd 9 (SEQ ID NO: 57) (other)
chain: MLAEAKVLANRELDKYGVSDFYKRLINKAKTVEGVEALKLHILAALPTGGGGSGGGSGGGSGGGSASISIEKIQADTKTLTKTIITRIIQLSTQNGVSTDQRVSGLDFIPGNQQFQNLADMDQTLAVYQQILSSLPMPDRTQISNDLENLRSLFALLATLKNCPFTRSDGLDTMEIWGGIVEESLYSTEVVTLDRLRKSLKNIEKQLDHIQGC
B3: Cmpd 14 (SEQ ID NO: 60) (other)
chain: MLAEAKVLANRELDKYGVSDFYKRLINKAKTVEGVEALKLHILAALPTGGGGSGGGSGGGSGGGSASPIQRVQDDTKTLIKTIITRINDISPPQGVCSRPRVAGLDFIPRVQSVRTLSGMDQILATYQQILTSLQSRNVIQISNDLENLRDLLHVLAFSKSCPVPRARGSDTIKGLGNVLRASVHSTEVVALSRLKAALQDMLRQLDRNPGC
B4: Compound 15 (SEQ ID NO: 61) (other)
chain: B3 chain with C97S
notes: also called Cmpd 15; ABD1-HuSeal
B5: Cmpd 16 (SEQ ID NO: 62) (other)
chain: MLAEAKVLANRELDKYGVSDFYKRLINKAKTVEGVEALKLHILAALPTGPIQRVQDDTKTLIKTIITRINDISPPQGVCSPRVAGLDFIPRVQSVRTLSGMDQILATYQQILTSLQSRNVIQISNDLENLRDLLHVLAFSKSCPVPRARGSDTIKGLGNVLRASVHSTEVVALSRLKAALQDMLRQLDRNPGC
B6: Cmpd 18 (SEQ ID NO: 64) (other)
chain: MLAEAKVLANRELDKYGVSDYYKNIINRAKTVEGVRALKLHILAALPTGGGGSGGGSGGGSGGGSASVPIQKVQDDTKTLIKTIVTRINDISHTQSVSSKQKVTGLEFIPGLHPILTLSKMDQTLAVYQQILTSMPSRNVIQISNDLENLRDLLHVLAFSKSCHLPQASGLETLESLGGVLEASGYSTEVVALSRLQGSLQDMLQQLDLSPGC
B7: Cmpd 1 (SEQ ID NO: 53) (other)
chain: MLAEAKVLANRELDKYGVSDFYKRLINKAKTVEGVEALKLHILAALPTGGGGASVPIQKVQDDTKTLIKTIVTRINDISHTQSVSSKQKVTGLEFIPGLHPILTLSKMDQTLAVYQQILTSMPSRNVIQISNDLENLRDLLHVLAFSKSCHLPQASGLETLESLGGVLEASGYSTEVVALSRLQGSLQDMLQQLDLSPGC
B8: Compound 2 (SEQ ID NO: 54) (other)
chain: B6 chain with Y21F, N24R, I25L, R28K, R36E
notes: also called Cmpd 2; ABD1-A500
B9: Cmpd 3 (SEQ ID NO: 55) (other)
chain: MVPIQKVQDDTKTLIKTIVTRINDISHTQSVSSKQKVTGLEFIPGLHPILTLSKMDQTLAVYQQILTSMPSRNVIQISNDLENLRDLLHVLAFSKSCHLPQASGLETLESLGGVLEASGYSTEVVALSRLQGSLQDMLQQLDLSPGCTGGGGSASLAEAKVLANRELDKYGVSDFYKRLINKAKTVEGVEALKLHILAALP

What was measured:
[1] = molecular target: T1, chimeric Hu-Leptin/Mu-EPO receptor; assay: cell-based or functional assay
Monkey serum albumin = molecular target: T2, Monkey serum albumin (monkey); assay: SPR (BioRad ProteOn XPR36), albumin amine-coupled on GLC chip, polypeptide as analyte, 25 C
T2 construct: Amine-coupled to the GLC sensor chip; also called Monkey SA
Description: (§1) All studies were conducted on a BioRad ProteOn XPR36 system using a GLC sensor chip at 25 degrees C. For amine coupling the GLC chip was activated for 5 minutes using a 1:1 mixture of sulfo-NHS/EDC diluted 30-fold from the initial stock in water as shown below. Each albumin sample was diluted to 25 ug/ml in 10 mM Na Acetate pH 5.0 and injected for 5 minutes over separate sensor surfaces. Each surface was then blocked with 1 M ethanolamine pH 8.5. Each albumin was coupled at a density of 2000-5000 in resonance units.
(§2) The binding of an engineered polypeptide was tested using 5 nM as the highest concentration in a three-fold dilution series. The running buffer contained 10 mM HEPES pH 7.4, 150 mM NaCl, 3 mM EDTA and 0.005% tween-20. All samples were tested using a 3-fold dilution series. Each concentration series was tested in duplicate. The dissociation phase for the highest concentration was monitored for 3 hours.

Human serum albumin = molecular target: T3, Human serum albumin (human, UniProt P02768 25-609); assay: as above
T3 construct: Amine-coupled to the GLC sensor chip; also called Human SA; HSA
Description: as §1, §2

Rat serum albumin = molecular target: T4, Rat serum albumin (rat, UniProt P02770 25-608); assay: as above
T4 construct: Amine-coupled to the GLC sensor chip; also called Rat SA; RSA
Description: as §1, §2

Dog serum albumin = molecular target: T5, Dog serum albumin (dog, UniProt P49822 25-608); assay: as above
T5 construct: Amine-coupled to the GLC sensor chip; also called Dog SA
Description: as §1, §2

Mouse serum albumin = molecular target: T6, Mouse serum albumin (mouse, UniProt P07724 25-608); assay: as above
T6 construct: Amine-coupled to the GLC sensor chip; also called Mouse SA
Description: as §1, §2

T5 sequence (P49822 25-608 limits assumed): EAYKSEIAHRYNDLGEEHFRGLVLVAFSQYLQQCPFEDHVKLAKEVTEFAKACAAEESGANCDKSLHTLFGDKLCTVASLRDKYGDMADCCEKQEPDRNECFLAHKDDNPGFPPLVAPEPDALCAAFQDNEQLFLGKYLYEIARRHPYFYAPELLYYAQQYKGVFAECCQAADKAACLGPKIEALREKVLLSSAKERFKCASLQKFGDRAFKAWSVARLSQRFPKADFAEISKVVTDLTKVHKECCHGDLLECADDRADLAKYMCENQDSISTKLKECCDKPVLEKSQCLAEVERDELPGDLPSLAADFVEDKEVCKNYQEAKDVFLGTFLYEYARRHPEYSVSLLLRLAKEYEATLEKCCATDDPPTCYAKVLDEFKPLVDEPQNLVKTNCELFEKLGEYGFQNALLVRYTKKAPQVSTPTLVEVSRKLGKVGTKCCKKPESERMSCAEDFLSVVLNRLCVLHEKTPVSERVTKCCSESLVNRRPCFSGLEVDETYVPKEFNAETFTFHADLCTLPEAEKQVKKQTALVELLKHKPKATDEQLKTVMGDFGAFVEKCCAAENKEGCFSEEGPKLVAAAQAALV
T4 sequence (P02770 25-608 limits assumed): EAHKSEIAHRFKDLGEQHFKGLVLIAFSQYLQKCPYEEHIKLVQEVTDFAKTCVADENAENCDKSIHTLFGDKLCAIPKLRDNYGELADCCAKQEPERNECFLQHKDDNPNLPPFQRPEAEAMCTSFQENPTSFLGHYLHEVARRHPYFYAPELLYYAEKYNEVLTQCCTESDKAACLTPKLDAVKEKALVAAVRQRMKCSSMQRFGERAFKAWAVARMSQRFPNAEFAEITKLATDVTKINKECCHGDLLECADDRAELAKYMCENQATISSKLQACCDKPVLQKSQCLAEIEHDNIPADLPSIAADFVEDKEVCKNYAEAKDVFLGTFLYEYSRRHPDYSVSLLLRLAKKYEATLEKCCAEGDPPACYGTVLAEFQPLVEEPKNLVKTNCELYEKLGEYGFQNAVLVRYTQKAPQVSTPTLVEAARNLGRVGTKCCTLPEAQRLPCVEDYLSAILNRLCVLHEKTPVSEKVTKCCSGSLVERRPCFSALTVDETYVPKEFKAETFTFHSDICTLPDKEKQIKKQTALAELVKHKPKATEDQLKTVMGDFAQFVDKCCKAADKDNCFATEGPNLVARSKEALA
T2 sequence (A2V9Z4 25-608): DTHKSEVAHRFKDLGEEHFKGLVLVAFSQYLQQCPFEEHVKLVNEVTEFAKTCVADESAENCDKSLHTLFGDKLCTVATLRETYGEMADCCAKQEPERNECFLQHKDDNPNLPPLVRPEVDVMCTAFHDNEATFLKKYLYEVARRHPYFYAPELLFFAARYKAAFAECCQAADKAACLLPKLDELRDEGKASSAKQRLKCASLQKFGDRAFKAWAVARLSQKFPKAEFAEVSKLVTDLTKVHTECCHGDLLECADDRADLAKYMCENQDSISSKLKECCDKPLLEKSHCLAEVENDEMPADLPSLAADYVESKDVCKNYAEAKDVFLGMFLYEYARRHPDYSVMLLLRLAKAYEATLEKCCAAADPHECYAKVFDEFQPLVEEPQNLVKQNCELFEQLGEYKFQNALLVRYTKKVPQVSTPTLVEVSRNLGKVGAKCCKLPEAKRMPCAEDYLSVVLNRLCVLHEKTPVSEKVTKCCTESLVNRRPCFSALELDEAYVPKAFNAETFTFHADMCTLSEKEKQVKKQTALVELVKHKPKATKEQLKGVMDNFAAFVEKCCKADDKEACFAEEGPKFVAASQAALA
T3 sequence (P02768 25-609 limits assumed): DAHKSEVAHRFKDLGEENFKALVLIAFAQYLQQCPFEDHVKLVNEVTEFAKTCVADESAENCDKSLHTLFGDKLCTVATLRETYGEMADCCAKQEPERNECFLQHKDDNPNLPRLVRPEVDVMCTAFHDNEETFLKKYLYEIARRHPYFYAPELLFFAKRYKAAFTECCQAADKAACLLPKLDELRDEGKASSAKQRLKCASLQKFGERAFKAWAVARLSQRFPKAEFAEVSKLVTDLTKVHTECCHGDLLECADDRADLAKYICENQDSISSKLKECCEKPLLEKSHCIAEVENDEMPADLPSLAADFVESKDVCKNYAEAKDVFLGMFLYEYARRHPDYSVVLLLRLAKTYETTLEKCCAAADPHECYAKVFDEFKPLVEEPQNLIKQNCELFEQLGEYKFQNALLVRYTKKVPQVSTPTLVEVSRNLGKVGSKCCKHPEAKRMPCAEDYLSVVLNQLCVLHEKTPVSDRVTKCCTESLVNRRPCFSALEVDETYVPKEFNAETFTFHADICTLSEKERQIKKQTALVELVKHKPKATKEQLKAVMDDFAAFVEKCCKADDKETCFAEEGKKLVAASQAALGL

Row | EC50 nM (Obeca STAT5 assay) [1] | Kd (Monkey serum albumin) | Kd (Human serum albumin) | Kd (Rat serum albumin) | Kd (Dog serum albumin) | Kd (Mouse serum albumin) | Binder
1 | 0.103 nM |  |  |  |  |  | B1
2 | 0.185 nM |  |  |  |  |  | B2
3 | 0.406 nM |  |  |  |  |  | B3
4 | 0.427 nM | 0.017 nM | 0.012 nM | < 0.002 nM | 0.04 nM | 0.277 nM | B4
5 | 0.411 nM |  |  |  |  |  | B5
6 | 0.322 nM |  |  |  |  |  | B6
7 | 0.628 nM |  |  |  |  |  | B7
8 | 0.53 nM | 0.158 nM | 0.056 nM | 0.033 nM | 0.358 nM | 1.97 nM | B8
9 | 0.095 nM |  |  |  |  |  | B9
